Measurements published in PMC8368726, “Granzyme A Produced by γ9δ2 T Cells Activates ER Stress Responses and ATP Production, and Protects Against Intracellular Mycobacterial Replication Independent of Enzymatic Activity” (Frontiers in Immunology, 2021).

Target: the molecule itself
Test: non-reducing SDS gel electrophoresis (silver stain and western blot); purified GzmA run under non-reducing conditions; homodimer at ~50 kDa and polymers of it

B1: Native human Granzyme A (enzyme, UniProt P12544 29-262, looked up)
chain: IIGGNEVTPHSRPYMVLLSLDRKTICAGALIAKDWVLTAAHCNLNKRSQVILGAHSITREEPTKQIMLVKKEFPYPCYDPATREGDLKLLQLMEKAKINKYVTILHLPKKGDDVKPGTMCQVAGWGRTHNSASWSDTLREVNITIIDRKVCNDRNHYNFNPVIGMNMVCAGSLRGGRDSCNGDSGSPLLCEGVFRGVTSFGLENKCGDPRGPGVYILLSKKHLNWIIMTIKGAV
notes: Granzyme A (GzmA), native human protein, commercially obtained; Some monomer at ~25 kDa is seen beside the homodimer; also called NhGzmA; native GzmA; source: bought: TheraTest (Lombard, IL)
B1: binds.
